From US20060058189A1

Target: PpFtsZ2-1-CFP fusion protein (Physcomitrella patens)
Assay: FRET by acceptor photobleaching, confocal microscopy, cotransfected Physcomitrella protoplasts (FtsZ2-1-CFP donor, FtsZ1-1-YFP acceptor)

PpFtsZ1-1-YFP fusion protein
FRET efficiency: 36.5%
